In patent US20220403013A1:

Molecular target: malondialdehyde-modified LDL (MDA-LDL), human (human) (UniProt P04114)
Assay: ELISA, MDA-LDL immobilised on plate, antibody titrated (0.01-50 µg/ml), HRP anti-human IgG detection

orticumab (antibody)
Kd: 8 nM
